Data reported in patent publication US20070185028A1 (published 2007).
No end group written: not given here.

What was measured:
[1] = biological target: T1, Human γD crystallin (human, UniProt P07320 2-174, limits assumed); experiment: protein pin array ELISA, A450; listed as peak peptide with unheated and pre-heated target
T1 construct: Used unheated (23° C) and pre-heated (45° C, 15 min)
T1 sequence (looked up): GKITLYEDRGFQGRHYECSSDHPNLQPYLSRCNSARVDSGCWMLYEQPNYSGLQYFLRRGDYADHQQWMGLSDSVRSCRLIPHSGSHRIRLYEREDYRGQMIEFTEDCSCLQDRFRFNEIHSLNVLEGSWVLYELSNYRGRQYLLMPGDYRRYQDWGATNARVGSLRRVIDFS

[2] = biological target: T2, Porcine Citrate synthase (porcine, UniProt P00889 28-464); experiment: as above
T2 construct: also called CS
T2 sequence (looked up): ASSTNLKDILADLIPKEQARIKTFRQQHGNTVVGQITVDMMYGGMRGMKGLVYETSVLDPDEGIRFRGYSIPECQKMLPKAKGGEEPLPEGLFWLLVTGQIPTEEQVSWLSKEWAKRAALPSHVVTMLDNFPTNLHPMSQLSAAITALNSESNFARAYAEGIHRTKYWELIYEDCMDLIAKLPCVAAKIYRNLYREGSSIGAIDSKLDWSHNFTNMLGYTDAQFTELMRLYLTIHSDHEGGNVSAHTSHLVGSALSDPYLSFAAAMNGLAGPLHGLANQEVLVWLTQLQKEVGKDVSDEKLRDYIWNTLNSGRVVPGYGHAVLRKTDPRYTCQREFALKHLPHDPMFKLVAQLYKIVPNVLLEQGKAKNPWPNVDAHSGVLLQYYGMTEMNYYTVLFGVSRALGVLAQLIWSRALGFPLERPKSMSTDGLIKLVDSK

[3] = biological target: Bovine βH crystallin (bovine); experiment: cell-based or functional assay
[4] = biological target: Equine Alcohol dehydrogenase (equine, UniProt P00327 2-375); experiment: cell-based or functional assay
[5] = biological target: Amyloid-beta (1-42) (UniProt P05067); experiment: cell-based or functional assay
[6] = biological target: beta amyloid (UniProt P05067 672-713, limits assumed); experiment: cell-based or functional assay
[7] = biological target: T1, Human γD crystallin; experiment: cell-based or functional assay
[8] = biological target: β2-microglobulin (UniProt P61769 21-119); experiment: cell-based or functional assay
[9] = biological target: transthyretin (UniProt P02766 21-147); experiment: cell-based or functional assay
[10] = biological target: T2, Porcine Citrate synthase; experiment: protein pin array

Chain of β2-microglobulin (P61769 21-119 limits assumed): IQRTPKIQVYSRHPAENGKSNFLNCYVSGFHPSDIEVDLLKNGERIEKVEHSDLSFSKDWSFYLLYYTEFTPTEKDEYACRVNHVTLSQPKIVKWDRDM
Chain of Equine Alcohol dehydrogenase (P00327 2-375 limits assumed): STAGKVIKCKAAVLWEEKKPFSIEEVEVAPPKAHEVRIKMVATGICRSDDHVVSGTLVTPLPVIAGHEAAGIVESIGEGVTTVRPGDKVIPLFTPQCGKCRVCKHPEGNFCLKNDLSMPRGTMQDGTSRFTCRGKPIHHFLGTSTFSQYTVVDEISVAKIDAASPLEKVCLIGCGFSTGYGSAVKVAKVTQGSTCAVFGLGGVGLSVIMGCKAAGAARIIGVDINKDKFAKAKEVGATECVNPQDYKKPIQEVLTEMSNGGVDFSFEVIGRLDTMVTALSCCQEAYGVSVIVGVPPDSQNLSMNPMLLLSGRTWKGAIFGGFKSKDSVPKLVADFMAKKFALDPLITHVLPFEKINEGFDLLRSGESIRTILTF

B1: FSVNLDVK (peptide)
peptide: FSVNLDVK
modifications: also: covalently bound to polyethylene pin
notes: pin-immobilised 8-mer of human αB crystallin; also called β3
- binding result [1]: binds
- binding result [2]: binds

Binder: DRFSVNLDVKHFS
- protection against thermal aggregation at 50° C, light scattering 340 nm, 50:1 peptide:target [3]: ~30 % protection
- protection against thermal aggregation at 50° C, light scattering 340 nm, 50:1 peptide:target [4]: ~30 % protection
- pH induced aggregation of amyloid-beta at pH 5.2, light scattering 360 nm (amyloid-beta alone = 100%) [5]: 4 % aggregation
- Δfluorescence (Aβ), Thioflavin T, 72 h at 50° C (no chaperone: 1,324,974,048) [6]: 2.64e+08
- Δfluorescence (γD crystallin), Thioflavin T, 72 h at 50° C (no chaperone: 888,803,840) [7]: 6.61e+08

Binder: EERQ
- β2m fibrillation, ThT fluorescence, 1:1 peptide:β2m (29 µM) [8]: ~100 % inhibition

Binder: RQDE
- β2m fibrillation, ThT fluorescence, 1:1 peptide:β2m (29 µM) [8]: ~100 % inhibition

Binder: ERTIPITRE
- Δfluorescence (Aβ), Thioflavin T, 72 h at 50° C (no chaperone: 1,324,974,048) [6]: 5.77e+08
- Δfluorescence (γD crystallin), Thioflavin T, 72 h at 50° C (no chaperone: 888,803,840) [7]: 6.11e+08

B2: LTITSSLS (peptide)
peptide: LTITSSLS
modifications: also: covalently bound to polyethylene pin
notes: pin-immobilised 8-mer of human αB crystallin; also called β8
- binding result [1]: binds
- binding result [2]: binds

Binder: EERQDE
- TTR fibrillation, ThT fluorescence, 1:1 peptide:TTR (16 µM) [9]: ~100 % inhibition
- β2m fibrillation, ThT fluorescence, 1:1 peptide:β2m (29 µM) [8]: ~100 % inhibition

Binder: HEER
- TTR fibrillation, ThT fluorescence, 1:1 peptide:TTR (16 µM) [9]: ~100 % inhibition

B3: FYLRPPSF (peptide)
peptide: FYLRPPSF
notes: pin-immobilised 8-mer of human αB crystallin; also called peptide 24
- binding result [1]: binds
- binding result [2]: binds

Binder: STSLSPFYLRPPSFLRAP
- Δfluorescence (Aβ), Thioflavin T, 72 h at 50° C (no chaperone: 1,324,974,048) [6]: 4.78e+08
- Δfluorescence (γD crystallin), Thioflavin T, 72 h at 50° C (no chaperone: 888,803,840) [7]: 6.06e+08

B4: RTIPITRE (peptide)
peptide: RTIPITRE
notes: pin-immobilised 8-mer of human αB crystallin; also called peptide 79
- binding result [2]: binds

B5: HGFISREF (peptide)
peptide: HGFISREF
notes: pin-immobilised 8-mer of human αB crystallin; also called peptide 56
- binding result [1]: binds

B6: WIRRPFFP (peptide)
peptide: WIRRPFFP
notes: pin-immobilised 8-mer of human αB crystallin; also called peptide 5
- binding result [1]: binds
- binding result [2]: binds

B7: LRAPSWFD (peptide)
peptide: LRAPSWFD
notes: pin-immobilised 8-mer of human αB crystallin; also called peptide 28
- binding result [2]: binds

B8: DQFFGEHL (peptide)
peptide: DQFFGEHL
notes: pin-immobilised 8-mer of human αB crystallin; also called peptide 13
- binding result [1]: binds

B9: GVLTVNGP (peptide)
peptide: GVLTVNGP
modifications: also: covalently bound to polyethylene pin
notes: pin-immobilised 8-mer of human αB crystallin; also called β9
- binding result [10]: binds
- binding result [1]: binds

B10: IAIHHPWI (peptide)
peptide: IAIHHPWI
notes: pin-immobilised 8-mer of human αB crystallin; also called peptide 2
- binding result [1]: binds

B11: LTVNGPRK (peptide)
peptide: LTVNGPRK
notes: pin-immobilised 8-mer of human αB crystallin; also called peptide 72
- binding result [2]: binds

Binder: HGKHEERQ
- TTR fibrillation, ThT fluorescence, 1:1 peptide:TTR (16 µM) [9]: ~100 % inhibition

Binder: LTITSSLSSDGV
- Δfluorescence (Aβ), Thioflavin T, 72 h at 50° C (no chaperone: 1,324,974,048) [6]: 3.52e+08
- Δfluorescence (γD crystallin), Thioflavin T, 72 h at 50° C (no chaperone: 888,803,840) [7]: 6.75e+08

B12: FISREFHR (peptide)
peptide: FISREFHR
notes: pin-immobilised 8-mer of human αB crystallin; also called peptide 57
- binding result [2]: binds

B13: EFHRKYRI (peptide)
peptide: EFHRKYRI
notes: pin-immobilised 8-mer of human αB crystallin
- binding result [1]: binds

Binder: LTITSSLSDGV
- protection against thermal aggregation at 50° C, light scattering 340 nm, 50:1 peptide:target [3]: ~30 % protection
- protection against thermal aggregation at 50° C, light scattering 340 nm, 50:1 peptide:target [4]: ~30 % protection
- pH induced aggregation of amyloid-beta at pH 5.2, light scattering 360 nm (amyloid-beta alone = 100%) [5]: 15 % aggregation

Binder: HGKHEERQDE
- pH induced aggregation of amyloid-beta at pH 5.2, light scattering 360 nm (amyloid-beta alone = 100%) [5]: 30 % aggregation
- Δfluorescence (Aβ), Thioflavin T, 72 h at 50° C (no chaperone: 1,324,974,048) [6]: 7.96e+08
- Δfluorescence (γD crystallin), Thioflavin T, 72 h at 50° C (no chaperone: 888,803,840) [7]: 7.34e+08

B14: PFFPFHSP (peptide)
peptide: PFFPFHSP
notes: pin-immobilised 8-mer of human αB crystallin; also called 13 PFFPFHSP20
- binding result [1]: binds

B15: SLSPFYLR (peptide)
peptide: SLSPFYLR
notes: pin-immobilised 8-mer of human αB crystallin; also called peptide 22
- binding result [1]: binds
- binding result [2]: binds

B16: SFLRAPSW (peptide)
peptide: SFLRAPSW
notes: as for B13
- binding result [1]: binds

B17: FPFHSPSR (peptide)
peptide: FPFHSPSR
notes: pin-immobilised 8-mer of human αB crystallin; also called peptide 8
- binding result [2]: binds
